Results reported in patent publication US10632208B2, “Peptide-mediated drug delivery across epithelial barrier” (Purdue Research Foundation, priority 2017, dated 2020).

Test system: MLCK
Experiment: Immunoblot of MLCK and P-MLC in whole-cell Caco-2 lysates
Assay type: cell-based, human
Details: purified LAP 1 μg/mL, 60 min pi
Experimental: To extract the proteins from Caco-2 cells, cells were seeded in 6-well plates for 14-21 days. Following treatment, the cells were washed, scraped from the bottom of 6-well plates, suspended in PBS, and pelleted by centrifugation. Total protein from Caco-2 cells was extracted using the M-PER Extraction Kit (Thermo Fisher Scientific). Detergent-insoluble (membrane) and detergent-soluble (cytosolic) proteins were isolated using a Mem-Per Eukaryotic Protein Extraction Kit (Thermo Fisher Scientific) while the cytosolic and nuclear proteins were extracted using NE-PER Extraction Reagent (Thermo Fisher Scientific). To extract proteins from ileal epithelial cells, the epithelial cell fraction from ileal tissues were isolated as described above and the detergent-insoluble and the detergent-soluble proteins were isolated using a Mem-Per Eukaryotic Protein Extraction Kit.
To extract total protein from intact bacterial cells, sample solvent buffer and sonication (3 cycles of 20 min each) were used. […] The protein concentrations were determined by BCA assay (Thermo Fisher Scientific), and separated on SDS-PAGE gels (10-12.5% polyacrylamide) and electro-transferred to polyvinylidene difluoride (PVDF) membrane (Millipore). […] To compare the reaction intensities, the average band densities were determined using Quantity One software (Bio-Rad). […]

B1: LAP: Listeria adhesion protein, alcohol acetaldehyde dehydrogenase of Listeria monocytogenes, 866 aa, 94 kDa; recombinant, histidine-tagged form SEQ ID NO: 10 (protein)
chain: MAIKENAAQEVLEVQKVIDRLADNGQKALKAFESYNQEQVDNIVHAMALAGLDQHMPLAKLAVEETGRGLYEDKCIKNIFATEYIWNNIKNNKTVGVINEDVQTGVIEIAEPVGVVAGVTPVTNPTSTTLFKAIIAIKTRNPIIFAFHPSAQRCSSAAAKVVYDAAIAAGAPEHCIQWVEKPSLEATKQLMNHDKVALVLATGGAGMVKSAYSTGKPALGVGPGNVPAYIDKTAKIKRSVNDIILSKSFDQGMICASEQAVIVDKEVAKEVKAEMEANKCYFVKGAEFKKLESYVINPEKGTLNPDVVGKSPAWIANQAGFKVPEDTKILVAEIKGVGDKYPLSHEKLSPVLAFIEAANQAEAFDRCEEMLVYGGLGHSAVIHSTDKEVQKAFGIRMKACRIIVNAPSAQGGIGDIYNGFIPSLTLGCGSYGKNSVSQNVSATNLLNVKRIADRRNNMQWFKLPPKIFFEKYSTQYLQKMEGVERVFIVTDPGMGSFKYVDVVIEHLKKRGNDVAYQVFADVEPDPSDVTVYKGAELMKDFKPDTIIALGGGSAMDAAKGMWLFYEHPEASFFGLKQKFLDIRKRTFKYPKLGGKAKFVAIPTTSGTGSEVTPFAVITDKENNIKYPLADYELTPDVAIVDAQYVTTVPAHITADTGMDVLTHAIESYVSVMASDYTRGLSIRAIELVFENLRESVLTGDPDAREKMHNASALAGMAFANAFLGINHSLAHKIGPEFHIPHGRANAILMPHVIRYNALKPKKHALFPRYESFRADEDYARISRIIGFPAATTEEGVKSLVDEIIKLGKDVGIDMSLKGQNVAKKDLDAVVDTLADRAFMDQCTTANPKQPLVSELKEIYLEAYKGV
modifications: Listeria monocytogenes
increase of MLCK protein expression levels: 249±9%
